Data: patent US20240376151A1, “STAPLED PEPTIDES AND METHODS THEREOF” (FOG PHARMACEUTICALS, INC., priority 2022, published 2024)
Numbered stars: 1 amine (or outer) side, 2 acyl side, 3 side chain; on linkers, the order of the positions; unused ones are H or OH. Bridge positions count the residues as written; N and C are the ends. Ends that are not written are not given here. Phenylene(1,4-NHCOCH2)2 = O=C(C[*:1])Nc1ccc(NC(=O)C[*:2])cc1

Biological target: T1, CHIP (Homo sapiens, UniProt Q9UNE7)
T1 construct: N-term truncated CHIP (also known as STUB1, Uniprot ID: Q9UNE7, residues 23-303); made in house; host or cells: E. coli BL21 CodonPlus
T1 sequence (Q9UNE7 23-303): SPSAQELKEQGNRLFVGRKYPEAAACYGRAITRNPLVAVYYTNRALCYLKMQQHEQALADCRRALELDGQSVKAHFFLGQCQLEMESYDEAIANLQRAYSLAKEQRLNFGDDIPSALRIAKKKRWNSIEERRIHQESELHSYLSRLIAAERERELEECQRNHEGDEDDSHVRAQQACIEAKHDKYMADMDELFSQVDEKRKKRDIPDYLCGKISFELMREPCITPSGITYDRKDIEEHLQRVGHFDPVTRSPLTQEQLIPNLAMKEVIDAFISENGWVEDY
Test: Naive Library Presenter Screening (phage, NGS), CHIP
Format: binding
Settings: CHIP clusters (C83, C84); for interaction data, BLANK: Blank = Media only; for interaction data at Target Concentration 10: target concentration 10 nM; for interaction data at Target Concentration 30: target concentration 30 nM; for interaction data at Target Concentration 100: target concentration 100 nM; for interaction data at Target Concentration 300: target concentration 300 nM; for interaction data at Target Concentration 1000: target concentration 1000 nM
Protocol: To conduct phage library screening, previously described procedures were utilized in accordance with the present disclosure.
Next-generation sequencing was performed as described in accordance with the present disclosure.
Hit ID and Clustering is performed according to a described procedure in accordance with the present disclosure.

Sequence	interaction data, BLANK (first column)	interaction data, BLANK (second column)	interaction data at Target Concentration 10	interaction data at Target Concentration 30	interaction data at Target Concentration 100	interaction data at Target Concentration 300	interaction data at Target Concentration 1000 (first column)	interaction data at Target Concentration 1000 (second column)
DPAELFCTEAADICMVD (linker 7-14 via Phenylene(1,4-NHCOCH2)2 (inferred))	0	0	0	0	0	18	13	22
DPAETFCWDAADICMVD (linker 7-14 via Phenylene(1,4-NHCOCH2)2 (inferred))	0	0	0	0	1	17	7	32
DPAEYACYHAASICNVD (linker 7-14 via Phenylene(1,4-NHCOCH2)2 (inferred))	0	0	0	0	54	61	31	91
DPAFDACQFAAAMCDHQ (linker 7-14 via Phenylene(1,4-NHCOCH2)2 (inferred))	0	0	0	30	23	39	80	248
DPAFDRCQWAAALCMMN (linker 7-14 via Phenylene(1,4-NHCOCH2)2 (inferred))	0	0	0	0	4	13	31	76
DPAFEQCQFAAAMCLHH (linker 7-14 via Phenylene(1,4-NHCOCH2)2 (inferred))	0	0	0	6	1	17	42	21
DPAFERCQLAAAFCYDS (linker 7-14 via Phenylene(1,4-NHCOCH2)2 (inferred))	0	0	0	0	2	15	60	47
DPAFEVCQFAAATCSSN (linker 7-14 via Phenylene(1,4-NHCOCH2)2 (inferred))	0	0	0	0	8	10	6	30
DPAFEYCQWAAATCQMD (linker 7-14 via Phenylene(1,4-NHCOCH2)2 (inferred))	0	0	0	12	0	43	46	90
DPAFFECVRAASICMVD (linker 7-14 via Phenylene(1,4-NHCOCH2)2 (inferred))	0	0	0	0	0	51	41	54
DPAFTACQFAAAMCDSS (linker 7-14 via Phenylene(1,4-NHCOCH2)2 (inferred))	0	0	0	0	0	3	8	5
DPAFTRCQFAAAVCNFT (linker 7-14 via Phenylene(1,4-NHCOCH2)2 (inferred))	0	0	0	3	0	6	19	28
DPAFVRCQFAAASCHTI (linker 7-14 via Phenylene(1,4-NHCOCH2)2 (inferred))	0	0	0	0	0	22	27	19
DPAFWQCQFAAATCAHY (linker 7-14 via Phenylene(1,4-NHCOCH2)2 (inferred))	0	0	0	0	19	16	70	44
DPAFWRCQFAAATCEHT (linker 7-14 via Phenylene(1,4-NHCOCH2)2 (inferred))	1	0	2	3	210	321	597	726
DPAFWSCQFAAATCSHL (linker 7-14 via Phenylene(1,4-NHCOCH2)2 (inferred))	0	0	0	0	4	6	11	8
DPAFWVCQYAAAMCQDV (linker 7-14 via Phenylene(1,4-NHCOCH2)2 (inferred))	1	0	8	3	160	86	331	323
